Reference: patent US10253086B2, “CD20 therapies, CD22 therapies, and combination therapies with a CD19 chimeric antigen receptor (CAR)-expressing cell” (Novartis AG, priority 2015, dated 2019)

Tested on: CD22
Experiment: NFAT assay of CD22 CAR in JNL cells on antigen-coated plates
Format: cell-based, human
Details: plates coated with CD22-FL-Fc, CD22-D567-Fc, CD22-D67
Experimental: Several CD22 CAR constructs were functionally validated in an NFAT assay. Briefly the experiments were performed as follows. A lentiviral vector (pELPS) carrying a nucleic acid, encoding a CD22 CAR with a CD22-binding scFv domain was introduced by electroporation into a Jurkat T cell line modified to express luciferase under the control of an NFAT response element (JNL). The cells were cultured and allowed to express the CAR construct. The electroporated cells were applied to a plate coated with the target antigen (CD22). Detection of luciferase signal in the coated plate was indicative of binding activity of the CD22 CAR to its antigen, leading to activation of the T cells and expression of luciferase.
The results also indicate that the different scFvs compete with m971 to different extents.
FIG. 72 is a graph showing the activation (in RLU) of several CD22 CAR-expressing JNL cells including CD22-57, CD22-58, CD22-59, CD22-60, CD22-61, CD22-62, and CD22-63, the scFv sequences of which are provided herein. Three different target proteins (CD22-FL-Fc, CD22-D567-Fc, and CD22-D67) were used to coat the tissue culture plates; a negative control (Fc) was also included. A mesothelin binding CAR (Meso-G07) was used as a negative control. CD22-12 and CD22-53 were used as positive controls. […] Domain mapping was performed on CD22 binding domains. Three different forms of antigens were used: CD22 full-length with all 7 external domains, Domain567 (in which domains 1-4 were deleted) and Domain67 (in which domains 1-5 were deleted). While not wishing to be bound by theory, it appears that the binding of various CD22 clones maps to the epitopes illustrated in FIG. 75.
Two scFvs, named CD22-64 and CD22-65, were produced by affinity maturation of hCD22-12. CAR constructs containing these scFvs were tested for activity in an NFAT assay as described above. […] The bars in the figure represent, from left to right, CD22 full length-Fc; CD22 D567-Fc; and an Fc only negative control used for coating of the plates.

CD22, sequence (P20273 501-687 limits assumed): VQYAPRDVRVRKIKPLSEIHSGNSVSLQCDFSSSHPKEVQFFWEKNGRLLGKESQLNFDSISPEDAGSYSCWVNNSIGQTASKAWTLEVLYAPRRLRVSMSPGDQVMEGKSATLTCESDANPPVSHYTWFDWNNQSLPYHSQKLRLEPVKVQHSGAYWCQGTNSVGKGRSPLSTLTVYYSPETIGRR

Molecule	function in NFAT assay
CD22-60: human CD22 scFv SEQ ID NO 135 (protein, listed as Homo sapiens) scFv: EVQLQQSGPGLVKPSQTLSLTCAISGDSVLSNSDTWNWIRQSPSRGLEWLGRTYHRSTWYDDYASSVRGRVSINVDTSKNQYSLQLNAVTPEDTGVYYCARDRLQDGNSWSDAFDVWGQGTMVTVSSGGGGSGGGGSGSGGSQSALTQPASVSGSPGQSITFSCTGTSSDIGGYNYVSWYQQHPGKAPKLMIYEVSNRPSGVSNRFSGTKSGNTASLTISGLQAEDEADYYCSSYTSSSTLYVFGTGTKLTVLG	functional
CD22-61: human CD22 scFv SEQ ID NO 136 (protein, listed as Homo sapiens) scFv: QVQLQESGPGLVKPSQTLSLTCAISGDSVLSNSDTWNWIRQSPSRGLEWLGRTYHRSTWYDDYASSVRGRVSINVDTSKNQYSLQLNAVTPEDTGVYYCARDRLQDGNSWSDAFDVWGQGTMVTVSSGGGGSGGGGSGSGGSQSALTQPASVSGSPGQSITISCTGTSSDVGGYNYVSWYQQHPGKAPKLMIYEVSNRPSGVSNRFSGSKSGNTASLTISGLQAEDEADYYCSSYTSSSTLYVFGTGTKVTVLG	functional
CD22-63: human CD22 scFv SEQ ID NO 138 (protein, listed as Homo sapiens) scFv: EVQLQQSGPGLVKPSQTLSLTCAISGDSVLSNSDTWNWIRQSPSRGLEWLGRTYHRSTWYDDYASSVRGRVSINVDTSKNQYSLQLNAVTPEDTGVYYCARDRLQDGNSWSDAFDVWGQGTMVTVSSGGGGSGGGGSGGGGSQSALTQPASVSGSPGQSITISCTGTSSDVGGYNYVSWYQQHPGKAPKLMIYEVSNRPSGVSNRFSGSKSGNTASLTISGLQAEDEADYYCSSYTSSSTLYIFGTGTKVTVLG	functional
CD22-62: human CD22 scFv SEQ ID NO 137 (protein, listed as Homo sapiens) scFv: EVQLQQSGPGLVKPSQTLSLTCAISGDSVLSNSDTWNWIRQSPSRGLEWLGRTYHRSTWYDDYASSVRGRVSINVDTSKNQYSLQLNAVTPEDTGVYYCARDRLQDGNSWSDAFDVWGQGTMVTVSSGGGGSGGGGSGGGGSQSALTQPASVSGSPGQSITISCTGTSSDVGGYNYVSWYQQHPGKAPKLMIYDVSNRPSGVSNRFSGSKSGNTASLTISGLQAEDEADYYCSSYTSSSTLYVFGTGTKVTVLG	functional
CD22-58: human CD22 scFv SEQ ID NO 133 (protein, listed as Homo sapiens) scFv: EVQLQQSGPGLVNPSQTLSITCAISGDSVSSNSAAWNWIRQSPSRGLEWLGRTFYRSKWYNDYAVSVKGRITISPDTSKNQFSLQLNSVTPEDTAVYYCAGGDYYYGLDVWGQGTTVTVSSGGGGSGGGGSGGGGSQSALTQPASVSGSPGQSITISCTGSSSDVGGYNSVSWYQQHPGKAPKLMIYEVINRPSGVSHRFSGSKSGNTASLTISGLQAEDEADYYCSSYTSSSTYVFGTGTKVTVLG	functional
CD22-57: human CD22 scFv SEQ ID NO 132 (protein, listed as Homo sapiens) scFv: EVQLQQSGPGLVKPSQTLSLTCAISGDSVSNNNAAWNWIRQSPSRGLEWLGRTYHRSTWYNDYVGSVKSRITINPDTSKNQFSLQLNSVTPEDTAVYYCARETDYGDYGAFDIWGQGTTVTVSSGGGGSGGGGSGGGGSQSALTQPASVSGSPGQSITISCTGSRNDIGAYESVSWYQQHPGNAPKLIIHGVNNRPSGVFDRFSVSQSGNTASLTISGLQAEDEADYYCSSHTTTSTLYVFGTGTKVTVLG	functional
CD22-59: human CD22 scFv SEQ ID NO 134 (protein, listed as Homo sapiens) scFv: EVQLQQSGPGLVKPSQTLSLTCAISGDSVLSNSDTWNWIRQSPSRGLEWLGRTYHRSTWYDDYASSVRGRVSINVDTSKNQYSLQLNAVTPEDTGVYYCARDRLQDGNSWSDAFDVWGQGTMVTVSSGGGGSGGGGSGGGGSQSALTQPASVSGSPGQSITISCTGSSSDIGGFNYVSWYQQHAGEAPKLMIYEVTNRPSGVSDRFSGSKSDNTASLTISGLQAEDEADYYCSSYASGSPLYVFGTGTKVTVLG	functional
